1 variant from IntAct's records for PubMed 28007894 can be followed below.

First the molecules themselves.
B1: Serine/threonine/tyrosine-interacting protein (Homo sapiens), Q8WUJ0 (parent)
chain: MEDVKLEFPSLPQCKEDAEEWTYPMRREMQEILPGLFLGPYSSAMKSKLPVLQKHGITHIICIRQNIEANFIKPNFQQLFRYLVLDIADNPVENIIRFFPMTKEFIDGSLQMGGKVLVHGNAGISRSAAFVIAYIMETFGMKYRDAFAYVQERRFCINPNAGFVHQLQEYEAIYLAKLTIQMMSPLQIERSLSVHSGTTGSLKRTHEEEDDFGTMQVATAQNG

In the assay the parent is B1. As to conditions: with FBXW7, Q969H0-1.
FBXW7, Q969H0-1, sequence (Q969H0 whole entry): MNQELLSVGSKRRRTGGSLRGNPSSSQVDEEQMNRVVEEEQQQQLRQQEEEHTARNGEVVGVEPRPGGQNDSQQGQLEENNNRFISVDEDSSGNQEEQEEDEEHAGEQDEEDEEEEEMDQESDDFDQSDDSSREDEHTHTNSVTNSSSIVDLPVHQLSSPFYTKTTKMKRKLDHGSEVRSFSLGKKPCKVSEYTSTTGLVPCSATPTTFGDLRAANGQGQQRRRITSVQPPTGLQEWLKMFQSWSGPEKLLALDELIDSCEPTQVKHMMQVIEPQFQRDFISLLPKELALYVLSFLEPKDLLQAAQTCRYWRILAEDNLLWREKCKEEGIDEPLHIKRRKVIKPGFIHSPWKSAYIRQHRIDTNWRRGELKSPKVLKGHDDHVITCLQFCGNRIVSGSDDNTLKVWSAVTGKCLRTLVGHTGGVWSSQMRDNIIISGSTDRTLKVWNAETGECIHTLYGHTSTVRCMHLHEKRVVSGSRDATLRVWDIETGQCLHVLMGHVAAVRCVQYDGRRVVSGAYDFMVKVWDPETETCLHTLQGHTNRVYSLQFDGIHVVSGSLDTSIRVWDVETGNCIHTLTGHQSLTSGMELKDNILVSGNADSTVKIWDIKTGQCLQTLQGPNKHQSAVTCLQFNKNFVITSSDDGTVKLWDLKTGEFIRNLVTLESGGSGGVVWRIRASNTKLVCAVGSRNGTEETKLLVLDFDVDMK
Take G120C: the “effect of a mutation on the interaction” value was “with no effect”.
